# Source: a protein production outcome set (Wang et al. 2014)
# Experiment: label from the status in PepcDB records
row,Sequence,protein production
1,MTTEVKQSPRERLLEAAAALTYRDGVGIGVEALCKAAGVSKRSMYQLFESKDELLAASLKERSAAFVAKALPPADDGRSPRERILYVFERVESQAGAPDFQGCRYLAVQIELKDQAHPASRVAYQIKADLMAFFRSEAERGGASDPDLLARQLILVFDGASARAGIGADNLTGLIVPTLTTLLDAADMH,not failed
2,MTTFSHSSTTPSVSVTTASGNNQSQLVATPVPDEQRISFWPQHFGLIPQWVTLEPRVFGWMDRLCEDYCGGIWNLYTLNNGGAFIAPEPDEDDGETWILFNAMNGNRAEMSPEAAGIAACLMTYSHHACRTECYAMTVHYYRLRDYALQHPECSAIMRIID,failed
3,MTTGDGRSRLLAAATRLIRTQGFAATSVEAICREAGVTKGAFFHHFPSKEALGVAAAEAWSDVTGRLFAEAPYHRPADPLDRVLAYIDFRRALVAGEIADYTCLVGTLVQEAYGSDPIRAACGASILGHAGTLEADMAAAAEARGVADVDPASLARHTQAVLQGAFILAKAGGGAAAVEEALDHLKRYLRLLFANPGASGA,failed
4,MTTHDRVRLQLQALEALLREHQHWRNDEPQPHQFNSTQPFFMDTMEPLEWLQWGLIPRMHDLLNNNQPLPGAFAVAPYYEMALATDHPQRALILAELEKLDALFADDASLEHHHHHH,failed
5,MTTIALLGNPNVGKTTLFNALTGSNQHVGNWPGVTVDKKEGFFNSNKIVDLPGIYALDTFSNEEKVSKKFLESGDVDLILNIVDASNLDRNLYLTMQLKDFKKPIVLLLNMNDIAEKKGIKIDPKKLEKAFNLKVIPITASKKEGLDEVKEFLNKGNFEKYLDKNTYSFKDEAHTYKFIEDKLSDCFNRSGNSSTTLTDKLDKVFLNPWLAYPLFIALMYFVFQFTFSWVGQPISDALDGFLGDTFMPYLSDLLSGTAPWFQSLLVDGIVAGVGGIIVLLPIILALFLCIAILEDSGYMARVAFLMDKFMRKIGLSGKAFLPMITGFGCTVPAIMSARTLESEKDRKLTALLAPFMSCNARLPVYVIFAGLFFPDNASMVVASLYILGILVAFILGLVFKNTLFKKDEEPFIIELPEYKVPEVRSVLAQLWDKSKSFLKKAGTIIFAMSVVIWFLQSFNFTGMVEDITHSFLYNIGSFIAPIFAPLGFGDWQASVSLLTGLMAKETIISTMEVIYKGDLTHMLPQFFTALSSYSFMVFVLLYTPCISVVGVMKKEYGGKFTVLSVIFQFLVAWISAFIIYHIGLLIF,failed
6,MTTIYLVRHGQASFGKANYDELSENGQAQATILGQYLKEILKEQPYVIAGTMKRHLQTAQGALKECFPDTHIYTHAGWNEFNHQQVFANYEPRFKQPELLKQDVAKEQNPRAYLAKIFESAISRWTDGEFHHEYEESWPKFKQRVEIALKMLCDELAQTKPRYAVVFTSGGVISVIAGKILELNPNRTFALNWAITNTSLTTLRLVGNEPQLLSLNEHHFIKVVNPALLTWI,failed
7,MTTKLDQLTSWLKERKITEVECLISDLTGIARGKISPTNKFIAEKGMRLPESVLLQTVTGDYVEDDIYYDLLDPADIDMVCRPDENAVFLVPWAIEPTAMVIHDTFDKLGNPIELSPRNILKRVLKMYADKGWRPIVAPEMEFYLTKRSDDPDYPLQAPVGRSGRQETGRQSFSIDAANEFDPLFEDMYDWCEAQGLDLDTLIHEEGTAQMEINFRHGDALDLADQILVFKRTMREAALKHNVAATFMAKPMTGEPGSAMHLHQSIVDVKTGKNIFSNADGTMSELFLHHIGGLQKFIPEVLPLFAPNVNSFRRFLPDTSAPVNVEWGEENRTVGLRVPDSSPENRRVENRLAGADANPYLALAASLLCGYIGMVEGIKPSAQVKGRGYERRNLRLPLTIEAALERMENCKPLEQYLGSKFISGYVAVKRAEHENFKRVISSWEREFLLLS,failed
8,MTTLKLFDIEHAWGLPRKVSPRFGARLILRGLHLDYLHDRASFVGEFPPAIKQQFVEAFPAMVKQLERLVATGEIDTTEQHCVSIEHAGFTCEADTLGSHGYLYIAIYQTKAKPLTTSNLTITRLEHHHHHH,failed
9,MTTLTRQDLNFGQVVADVLSEFLEVAVHLILYVREVYPVGIFQKRKKYNVPVQMSCHPELNQYIQDTLHCVKPLLEKNDVEKVVVVILDKEHRPVEKFVFEITQPPLLSINSDSLLSHVEQLLRAFILKISVCDAVLDHNPPGCTFTVLVHTREAATRNMEKIQVIKDFPWILADEQDVHMHDPRLIPLKTMTSDILKMQLYVEERAHKNS,not failed
10,MTTMQQRYDAVKDAMAQIGRLAAQLDGEALREAIGPVLVALGERDELFPRDEFPIRAGKPGGLYQLWRGESGDLALYASAGKTGKKQPPHDHTTWAVIAGVYGEEHNVFFERTDDGSRAGFGTLRQIDALTVVQGNAARLSGEVFHTIEVVSEEDSLHLHLHLYGRALDTLSGRINFATEEGGAYTRFMAVPETYAPWIAPRDLYEMLTDGGELAILDVRENGVYTQGHLFHAASMPLSVFELRVDDGLPSPHVRIVVIDDADGLAEQAVRLLHQRGYHNVAVLQGGQPGWNAAGLPVYTGVFVPSKAFGEVAEHVYGTPSISAVELDALRRSEEVLVLDSRTEQEFNLMSVPGAYSCPGAELVARALDHAGPIVVNCAGRTRSIIGAQSLRNAGKTDVRALENGTMGQHLAGLPLERGKSASYLDRPVAAGAAQAAQAWALGMSIATLDAGELHDMLSNPYRTTYLFDARDPSCSSRATLPRAVAAPGGQLVQQTDYYAPVRNARIVVFDTDGVQAPMTAGWLHQMGWEVYLHRPEATALVAPPRVEYDDERGVPVEAVAADAVIIDVGDSRTYRAGHLAGAAWAPRSRLPALLAQRKPAGPLLFTCADGRVSRLAAADAAAQGYQAAYLKGGTAALGADRLRGDAPQFLTEAIDVWYRPYDRETGIEEAMHQYLSWETGLLDKVRSDPTVAFRI,failed
11,MTTMVNVDTLPEYEKSQIKRALELGTVMTVFNARKSTPERRTVQMIMETRQVAWSKTADKIEGFLDIMEIKEIRPGKNSKDFERAKAVRHKAECCFTILYGTQFVLSTLSLATDSKEDAVKWLSGLKILHQEAMSASTPTMIESWLRKQIYSVDQTRRNSISLRELKTILPLVNFKVSGIKFLKDKLVEIGAQKDELSFEQFHLFYKKLMFDQQKSILDEFKKDSSVFILGNTDRPDASAVYLQDFQRFLLHEQQELWAQDLNKVRERMTKFIDDTMRETAEPFLFVDEFLTYLFSRENSIWDEKYDAVDMQDMNNPLSHYWISSSHNTYLTGDQLRSESSTEAYIRCLRAGCRCIELDCWDGPDGKPIIYHGWTRTTKIKFDDVVQAIRDHAFVTSSFPVILSIEEHCSVEQQRHMAKVFKEVLGDMLLTKPTEASADQLPSPSQLREKIIIKHKKLGPKGDVDVNVEDKKDEHKPQGELYMWDSIDQKWTRHYCAIADAKLSFGDDIEQAVEEEPVQDTPPTELHFGEKWFHKKVESRTSAEKLLQEYCAETGAKDGTFLVRESETFPNDYTLSFWRSGRVQHCRIRSTMENGVMKYYLTDNLTFNSIYALIQHYREAHLRCAEFELRLTDPVPNPNPHESKPWYYDSLSRGEAEDMLMRIPRDGAFLIRKREGTNSYAITFRARGKVKHCRINRDGRHFVLGTSAYFESLVELVSYYEKHALYRKMRLRYPVTPELLERYNMERDINSLYDVSRMYVDPSEINPSMPQRTVKALYDYKAKRSDELTFCRGALIHNVSKEPGGWWKGDYGTRIQQYFPSNYVEDISAGDAEEMEKQIIEDNPLGSLCKGILDLNTYNVVKAPQGKNQKAFVFILEPKKQGDPPVEFATDRVEELFEWFQSIREITWKMDTKENNMKYWERNQSIAIELSDLVVYCKPTSKTKDHLENPDFREIRSFVETKADSIVRQKPVDLLRYNQKGLTRVYPKGQRVDSSNYDPFRLWLCGSQMVALNFQTPDKYMQMNHALFSLNGRTGYVLQPESMRSEKYDPMPLESQRKILMTLTVKVLGARHLPKLGRSIACPFVEVEICGAEYDSNKFKTTVVNDNGLSPVWAPTQEKVTFEIYDPNLAFLRFVVYEEDMFSDPNFLAHATYPIKGIKSGFRSVPLKNGYSEDIELASLLVFCEMRPVLESEEELYSSCRQLRRRQEELNNQLFLYDTHQNLRGANRDALVKEFNVNENQLQLYQEKCNRRLREKRVSNSRFYS,not failed
12,MTTNTIMEQEARTAPQKIAEQLLANDAITESLGSVLREFKPKFVMIVGRGSSDHAGVFAKYLFEIEASIPTFAAAPSVASVYGKTLKLAGGLVIVISQSGRSPDILAQARMAKNAGAFCVALVNDETAPIKDIVDVVIPLRAGEEKAVAATKSYLATLSALLQVAAKWTQNESLVEAVNSLPQALQAAVDAEPQLRAGSLTDVKNLVVLGRGFGYAVSKEIALKLKEVCAIHAEAFSSAEFLHGPVTLVEKKLSILDVCIRDESYGSHVEQIANVKQRGANLIHLHQTSADIHPRIAPLALLQRFYIDVAAVAIALGINPDKPAGLKKVTQTL,not failed
